Reference: US20080057063A1 (published 2008)
Where two headings read alike, the source gives them in different places. Blank lines part the entries; values can stand above or below the binder they belong to.

Experiments:
[1] = target: T1, human αVβ6 integrin on cells (human, UniProt P06756 31-1048; P18564 22-788); assay: cell-based or functional assay
[2] = target: T1, human αVβ6 integrin on cells; assay: cell-based or functional assay; remark: listed apart in the source
[3] = target: T2, human αV on parental A375M cells, which express αVβ3 and αVβ5, but not αVβ6 (human, UniProt P06756 31-1048); assay: cell-based or functional assay
[4] = target: T3, α4β1 integrin (on J6.77 cells) (UniProt P13612 34-1032; P05556 21-798, limits assumed); assay: cell-based or functional assay
[5] = target: T4, α5β1 integrin (on K562 cells) (UniProt P08648 42-1049; P05556 21-798, limits assumed); assay: cell-based or functional assay
[6] = target: T2, human αV on parental A375M cells, which …; assay: FACS, parental A375M cells (αVβ3, αVβ5)
cynomolgus αVβ6 on cells = target: T5, cynomolgus αVβ6 on cells (cynomolgus, UniProt A0A2K5WCD3 31-1048; A0A2K5TZ36 22-787); assay: FACS, HEK-293 transfected with cynomolgus αV and β6
T5 construct: whole, on cells; also called macaque αVβ6; Mac AVB6

[7] = target: T1, human αVβ6 integrin on cells; assay: FMAT, HEK 293 cells overexpressing αVβ6, supernatant
soluble αVβ6 = target: T6, soluble αVβ6 (human, UniProt P06756 31-992; P18564 22-709); assay: Biacore, mAb captured on anti-human IgG, soluble αVβ6 injected, 1:1 fit
T6 construct: extracellular domain; also called soluble αVβ6 protein; soluble antigen

[8] = target: T1, human αVβ6 integrin on cells; assay: cell-based or functional assay; remark: listed apart in the source
[9] = target: T3, α4β1 integrin (on J6.77 cells); assay: cell-based or functional assay; remark: listed apart in the source
[10] = target: T4, α5β1 integrin (on K562 cells); assay: cell-based or functional assay; remark: listed apart in the source
[11] = target: T1, human αVβ6 integrin on cells; assay: FACS titration on K562 cells expressing human αVβ6; 95% CI ±22.7 pM
[12] = target: T1, human αVβ6 integrin on cells; assay: FACS, 293T-αVβ6 cells, antibody at 5 ug/ml
[13] = target: T1, human αVβ6 integrin on cells; assay: FACS, 293T-αVβ6 cells, antibody at 20 ug/ml
[14] = target: T1, human αVβ6 integrin on cells; assay: FACS, 293T-αVβ6 cells, antibody at 1.25 ug/ml
[15] = target: T7, mouse αV (HEK-293 cells transfected with mouse αV alone) (mouse, UniProt P43406 31-1044); assay: FACS, HEK-293 transfected with mouse αV
T7 construct: whole, on cells; Single chain transfected into HEK-293 cells; also called Mouse alphaV

[16] = target: T1, human αVβ6 integrin on cells; assay: FACS titration on K562 cells expressing human αVβ6 (as Example 18)
[17] = target: T1, human αVβ6 integrin on cells; assay: FACS titration on K562 cells expressing human αVβ6 (as Example 18); 95% CI ±15.9 pM

T6 sequence (P06756 31-992, chain 1 of 2): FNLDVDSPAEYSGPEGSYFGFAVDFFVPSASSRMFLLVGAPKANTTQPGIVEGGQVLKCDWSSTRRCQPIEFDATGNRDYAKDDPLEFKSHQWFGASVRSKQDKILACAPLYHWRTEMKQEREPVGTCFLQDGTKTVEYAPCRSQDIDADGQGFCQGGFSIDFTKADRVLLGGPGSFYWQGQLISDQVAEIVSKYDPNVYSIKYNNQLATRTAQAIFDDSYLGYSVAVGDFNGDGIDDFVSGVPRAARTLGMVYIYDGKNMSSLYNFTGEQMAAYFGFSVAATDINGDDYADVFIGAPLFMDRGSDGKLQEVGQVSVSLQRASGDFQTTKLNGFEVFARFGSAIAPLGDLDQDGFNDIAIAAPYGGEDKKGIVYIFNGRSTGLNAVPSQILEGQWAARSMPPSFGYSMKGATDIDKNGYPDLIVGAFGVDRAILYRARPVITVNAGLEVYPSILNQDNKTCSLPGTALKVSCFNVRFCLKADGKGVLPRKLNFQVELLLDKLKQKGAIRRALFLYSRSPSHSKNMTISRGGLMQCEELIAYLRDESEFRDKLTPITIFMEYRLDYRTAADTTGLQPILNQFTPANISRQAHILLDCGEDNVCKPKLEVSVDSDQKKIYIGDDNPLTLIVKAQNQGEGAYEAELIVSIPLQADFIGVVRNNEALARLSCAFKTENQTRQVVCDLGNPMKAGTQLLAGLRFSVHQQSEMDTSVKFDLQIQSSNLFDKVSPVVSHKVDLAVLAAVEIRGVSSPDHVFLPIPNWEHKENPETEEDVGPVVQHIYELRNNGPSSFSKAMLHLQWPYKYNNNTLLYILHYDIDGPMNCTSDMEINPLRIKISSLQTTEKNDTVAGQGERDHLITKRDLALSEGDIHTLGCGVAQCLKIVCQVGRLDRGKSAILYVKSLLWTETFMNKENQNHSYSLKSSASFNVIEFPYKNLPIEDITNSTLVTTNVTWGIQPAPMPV
T6 sequence (P18564 22-709, chain 2 of 2): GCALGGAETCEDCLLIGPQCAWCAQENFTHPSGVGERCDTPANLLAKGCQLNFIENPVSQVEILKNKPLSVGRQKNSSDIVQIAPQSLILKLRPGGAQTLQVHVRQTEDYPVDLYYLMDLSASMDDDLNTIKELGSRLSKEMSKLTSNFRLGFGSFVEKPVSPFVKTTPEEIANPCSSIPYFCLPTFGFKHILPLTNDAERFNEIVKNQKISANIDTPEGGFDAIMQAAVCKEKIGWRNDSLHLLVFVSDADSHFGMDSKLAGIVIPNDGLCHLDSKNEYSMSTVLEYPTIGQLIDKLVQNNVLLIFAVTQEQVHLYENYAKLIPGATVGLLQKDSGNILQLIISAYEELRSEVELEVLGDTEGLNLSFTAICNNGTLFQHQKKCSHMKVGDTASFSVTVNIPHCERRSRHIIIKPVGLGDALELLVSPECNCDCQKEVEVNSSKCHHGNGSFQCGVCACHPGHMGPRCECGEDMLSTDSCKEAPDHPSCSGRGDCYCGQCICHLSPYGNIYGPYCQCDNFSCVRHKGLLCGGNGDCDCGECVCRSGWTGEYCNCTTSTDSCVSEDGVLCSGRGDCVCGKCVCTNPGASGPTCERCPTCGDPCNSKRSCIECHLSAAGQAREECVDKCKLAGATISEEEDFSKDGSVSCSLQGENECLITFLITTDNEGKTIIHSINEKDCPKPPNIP
T4 sequence (P08648 42-1049 limits assumed, chain 1 of 2): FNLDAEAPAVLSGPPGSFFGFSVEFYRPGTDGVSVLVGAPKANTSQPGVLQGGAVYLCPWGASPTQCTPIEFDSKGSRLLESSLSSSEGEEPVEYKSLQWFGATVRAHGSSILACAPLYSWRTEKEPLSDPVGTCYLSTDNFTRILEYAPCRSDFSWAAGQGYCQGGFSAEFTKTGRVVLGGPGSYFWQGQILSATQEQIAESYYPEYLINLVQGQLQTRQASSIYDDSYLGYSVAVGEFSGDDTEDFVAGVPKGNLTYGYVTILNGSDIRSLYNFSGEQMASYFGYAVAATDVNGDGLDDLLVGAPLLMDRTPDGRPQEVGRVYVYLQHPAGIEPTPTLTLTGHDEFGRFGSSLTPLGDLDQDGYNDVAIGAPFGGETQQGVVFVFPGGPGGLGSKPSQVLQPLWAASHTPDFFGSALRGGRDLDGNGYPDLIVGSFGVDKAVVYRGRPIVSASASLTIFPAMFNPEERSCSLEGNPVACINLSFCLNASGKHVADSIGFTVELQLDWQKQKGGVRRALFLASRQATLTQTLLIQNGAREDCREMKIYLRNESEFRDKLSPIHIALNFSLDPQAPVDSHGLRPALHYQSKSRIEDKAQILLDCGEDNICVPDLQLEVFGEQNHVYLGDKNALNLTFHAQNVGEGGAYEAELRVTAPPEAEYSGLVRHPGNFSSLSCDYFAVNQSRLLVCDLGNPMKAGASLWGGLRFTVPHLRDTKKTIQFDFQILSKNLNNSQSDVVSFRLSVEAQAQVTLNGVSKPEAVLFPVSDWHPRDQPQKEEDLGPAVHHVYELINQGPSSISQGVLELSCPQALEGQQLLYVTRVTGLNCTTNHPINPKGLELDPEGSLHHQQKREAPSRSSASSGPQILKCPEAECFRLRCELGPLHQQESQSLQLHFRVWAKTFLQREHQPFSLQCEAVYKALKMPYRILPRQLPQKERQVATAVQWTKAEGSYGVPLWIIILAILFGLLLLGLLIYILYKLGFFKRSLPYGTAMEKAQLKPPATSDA
T4 sequence (P05556 21-798 limits assumed, chain 2 of 2): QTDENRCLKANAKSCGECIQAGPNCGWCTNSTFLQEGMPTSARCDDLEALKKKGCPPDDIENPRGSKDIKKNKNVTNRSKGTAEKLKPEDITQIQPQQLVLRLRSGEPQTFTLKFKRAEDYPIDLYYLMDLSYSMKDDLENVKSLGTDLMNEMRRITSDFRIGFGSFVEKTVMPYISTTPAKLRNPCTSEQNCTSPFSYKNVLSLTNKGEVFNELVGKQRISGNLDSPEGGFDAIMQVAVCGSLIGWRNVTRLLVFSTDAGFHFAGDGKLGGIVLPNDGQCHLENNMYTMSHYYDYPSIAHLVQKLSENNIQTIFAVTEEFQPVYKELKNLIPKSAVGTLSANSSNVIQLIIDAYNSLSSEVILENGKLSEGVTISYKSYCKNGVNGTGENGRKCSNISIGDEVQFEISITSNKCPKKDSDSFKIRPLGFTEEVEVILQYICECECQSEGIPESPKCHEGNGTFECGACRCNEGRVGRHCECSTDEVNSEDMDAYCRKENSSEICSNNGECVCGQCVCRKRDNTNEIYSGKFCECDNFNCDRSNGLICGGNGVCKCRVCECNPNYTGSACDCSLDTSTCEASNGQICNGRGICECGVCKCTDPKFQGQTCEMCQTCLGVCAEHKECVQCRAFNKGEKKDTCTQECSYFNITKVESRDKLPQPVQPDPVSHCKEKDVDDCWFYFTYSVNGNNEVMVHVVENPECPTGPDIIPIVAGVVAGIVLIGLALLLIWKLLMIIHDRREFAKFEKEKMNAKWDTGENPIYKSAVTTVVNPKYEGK
T2 sequence (P06756 31-1048 A375M): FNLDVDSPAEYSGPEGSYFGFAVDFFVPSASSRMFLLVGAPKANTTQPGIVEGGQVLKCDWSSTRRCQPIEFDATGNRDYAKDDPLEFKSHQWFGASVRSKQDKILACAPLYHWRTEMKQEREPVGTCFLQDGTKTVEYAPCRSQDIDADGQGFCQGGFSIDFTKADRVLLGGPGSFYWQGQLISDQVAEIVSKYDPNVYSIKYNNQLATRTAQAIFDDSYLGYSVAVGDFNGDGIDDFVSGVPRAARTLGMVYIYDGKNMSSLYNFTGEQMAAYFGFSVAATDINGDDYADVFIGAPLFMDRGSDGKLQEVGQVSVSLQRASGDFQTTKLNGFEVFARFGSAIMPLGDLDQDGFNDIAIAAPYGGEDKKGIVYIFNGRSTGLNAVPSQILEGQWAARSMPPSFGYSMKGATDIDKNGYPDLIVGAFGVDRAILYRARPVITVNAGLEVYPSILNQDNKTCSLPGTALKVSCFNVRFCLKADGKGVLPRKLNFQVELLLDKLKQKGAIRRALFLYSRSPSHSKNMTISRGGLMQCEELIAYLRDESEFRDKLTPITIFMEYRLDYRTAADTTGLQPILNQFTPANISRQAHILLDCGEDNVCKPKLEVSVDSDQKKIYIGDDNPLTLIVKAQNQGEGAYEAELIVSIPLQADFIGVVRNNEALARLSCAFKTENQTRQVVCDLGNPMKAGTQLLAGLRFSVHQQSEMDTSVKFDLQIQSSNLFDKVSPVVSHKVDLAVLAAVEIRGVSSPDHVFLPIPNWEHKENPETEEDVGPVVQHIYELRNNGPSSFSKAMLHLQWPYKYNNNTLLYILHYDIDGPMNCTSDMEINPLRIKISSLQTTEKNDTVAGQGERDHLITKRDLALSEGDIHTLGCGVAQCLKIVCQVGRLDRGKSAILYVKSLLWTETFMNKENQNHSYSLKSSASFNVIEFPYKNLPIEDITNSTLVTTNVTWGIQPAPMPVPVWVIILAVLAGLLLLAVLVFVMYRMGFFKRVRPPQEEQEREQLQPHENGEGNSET

- Assay 1 % Inhibition (HT29 adhesion to TGFβLAP) [1]: 98%
- Assay 2 % Inhibition (HT29 adhesion to TGFβLAP) [1]: 102%
- Average % Inhibition (HT29 adhesion to TGFβLAP) [1]: 100%
- Estimated IC50, n = 1 (HT29 adhesion to TGFβLAP) [2]: 0.029 µg/mL
- Estimated IC50, n = 2 (HT29 adhesion to TGFβLAP) [2]: 0.025 µg/mL
- Estimated IC50, n = 3 (HT29 adhesion to TGFβLAP) [2]: 0.033 µg/mL
- Percent Inhibition (A375M adhesion to osteopontin peptide, 5 µg/ml) [3]: 9%
- Percent Inhibition (J6.77 adhesion to CS-1 peptide of fibronectin, 5 ug/ml) [4]: -7%
- Percent Inhibition (K562 adhesion to FN9-10 peptide of fibronectin, 5 µg/ml) [5]: 2%
- % Cells Shifted [6]: 45%
- GeoMean [6]: 2.14
- % Cells Shifted (cynomolgus αVβ6 on cells): 53%
- GeoMean (cynomolgus αVβ6 on cells): 63.1
- FMAT Count [7]: 102
- FMAT FL1 [7]: 2140
- FMAT FL1 × Count [7]: 218000
- Kd (soluble αVβ6): 21 nM
- koff (soluble αVβ6): 0.00118 s⁻¹
- kon (soluble αVβ6): 56500 M⁻¹ s⁻¹
B1: sc 298 (antibody, V domains shown)
VH: QVQLVESGGGVVQPGRSLRLSCAASGFTFSSYGMHWVRQAPGKGLEWVAVIWYGGSNKYYADSVKGRFTISRDNSKNTLYLQMNSLRAEDTAVYYCARDLAARRGDYYYYGMDVWGQGTTVTVSS
VL: SSELTQDPVVSVALGQTVRITCQGDSLRSYYLSWYQQKPGQAPVLVIYGKNNRPSGIPDRFSGSNSGNTASLTITGAQAEDEADYYCNSRDSSGNHLFGGGTKLTVL

- Assay 1 % Inhibition (HT29 adhesion to TGFβLAP) [1]: 98%
- Assay 2 % Inhibition (HT29 adhesion to TGFβLAP) [1]: 101%
- Average % Inhibition (HT29 adhesion to TGFβLAP) [1]: 100%
- Estimated IC50, n = 1 (HT29 adhesion to TGFβLAP) [2]: 1.46 µg/mL
- Estimated IC50, n = 2 (HT29 adhesion to TGFβLAP) [2]: 0.54 µg/mL
- Estimated IC50, n = 3 (HT29 adhesion to TGFβLAP) [2]: 0.72 µg/mL
- Percent Inhibition (J6.77 adhesion to CS-1 peptide of fibronectin, 5 ug/ml) [4]: -17%
- % Cells Shifted [6]: 23%
- GeoMean [6]: 1.86
- % Cells Shifted (cynomolgus αVβ6 on cells): 35%
- GeoMean (cynomolgus αVβ6 on cells): 33.4
- FMAT Count [7]: 28
- FMAT FL1 [7]: 382
- FMAT FL1 × Count [7]: 10700
B6: sc 277 (antibody, V domains shown)
VH: EVQLVQSGAEVKKPGESLKISCKGSGYSFPSYWIGWVRQMPGKGLEWMGIIYPGDSDTRYSPSFQGQVTISADKSISTAYLQWSSLKASDTAMYYCARHPMEDGMDVWGQGTTVTVSS
VL: SYELTQPPSVSVSPGQTARITCSGDALPKKYAFWYQQKSGQAPVLVIYDDNKRPSGIPERFSGSSSGTMATLTITGAQVEDEADYYCYSTDSSGHHVFGGGTKLTVL

- IC50, n = 1 (HT29 adhesion to TGFβLAP) [8]: 0.013 µg/mL
- IC50, n = 2 (HT29 adhesion to TGFβLAP) [8]: 0.013 µg/mL
- IC50, n = 3 (HT29 adhesion to TGFβLAP) [8]: 0.039 µg/mL
- Percent Inhibition (J6.77 adhesion to CS-1 peptide of fibronectin, 5 ug/ml) [9]: -2%
- % Inhibition (K562 adhesion to fibronectin) [10]: 6%
- Geometric Mean Shift [12]: 6840
- Geometric Mean Shift [13]: 7240
- Geometric Mean Shift [14]: 4890
- Kd [16]: < 0.05 nM
- Kd [17]: 0.0463 nM
B8: sc 264 RAD (antibody, V domains shown)
VH: QVQLQESGPGLVKPSQTLSLTCTVSGGSISSGGYYWSWIRQHPGKGLEWIGYIYYSGRTYNNPSLKSRVTISVDTSKNQFSLKLSSVTAADTAVYYCARVATGRADYHFYAMDVWGQGTTVTVSS
VL: SYELTQPSSVSVSPGQTARITCSGDVLAKKSARWFHQKPGQAPVLVIYKDSERPSGIPERFSGSSSGTTVTLTISGAQVEDEAAYYCYSAADNNLVFGGGTKLTVL
notes: Variable domains only

The next lines start with the binder.

B2: sc 188 (antibody, V domains shown)
VH: QVQLQESGPGLVKPSQTLSLTCTVSGGSISSGVYYWTWIRQHPGNGLEWIGYIYYSGSTSYNPSLKSRVTISVDTSKKQFSLNLTSVTAADTAVYYCAREGPLRGDYYYGLDVWGQGTTVTVSS
VL: EIVLTQSPGTLSLSPGERATLSCRAGQTISSRYLAWYQQKPGQAPRPLIYGASSRATGIPDRFSGSGSGTDFTLTISRLEPEDFAVYYCQQYGSSPRTFGQGTKVEIK
- Assay 1 % Inhibition (HT29 adhesion to TGFβLAP) [1]: 99%
- Assay 2 % Inhibition (HT29 adhesion to TGFβLAP) [1]: 103%
- Average % Inhibition (HT29 adhesion to TGFβLAP) [1]: 101%
- Estimated IC50, n = 1 (HT29 adhesion to TGFβLAP) [2]: 0.041 µg/mL
- Estimated IC50, n = 2 (HT29 adhesion to TGFβLAP) [2]: 0.026 µg/mL
- Percent Inhibition (J6.77 adhesion to CS-1 peptide of fibronectin, 5 ug/ml) [4]: -10%
- Percent Inhibition (K562 adhesion to FN9-10 peptide of fibronectin, 5 µg/ml) [5]: 5%
- IC50, n = 1 (HT29 adhesion to TGFβLAP) [8]: 0.125 µg/mL
- IC50, n = 2 (HT29 adhesion to TGFβLAP) [8]: 0.157 µg/mL
- IC50, n = 3 (HT29 adhesion to TGFβLAP) [8]: 0.064 µg/mL
- Percent Inhibition (J6.77 adhesion to CS-1 peptide of fibronectin, 5 ug/ml) [9]: 2%
- % Inhibition (K562 adhesion to fibronectin) [10]: -5%
- GeoMean (cynomolgus αVβ6 on cells): 23.9
- FMAT Count [7]: 127
- FMAT FL1 [7]: 628
- FMAT FL1 × Count [7]: 79800
- Kd [11]: 0.0519 nM
- Kd (soluble αVβ6): 21.2 nM

B3: sc 188 SDM (antibody, V domains shown)
VH: QVQLQESGPGLVKPSQTLSLTCTVSGGSISSGVYYWTWIRQHPGNGLEWIGYIYYSGSTSYNPSLKSRVTISVDTSKKQFSLKLTSVTAADTAVYYCAREGPLRGDYYYGLDVWGQGTTVTVSS
VL: EIVLTQSPGTLSLSPGERATLSCRAGQTISSRYLAWYQQKPGQAPRPLIYGASSRATGIPDRFSGSGSGTDFTLTISRLEPEDFAVYYCQQYGSSPRTFGQGTKVEIK
notes: Variable domains only
- IC50, n = 1 (HT29 adhesion to TGFβLAP) [8]: 0.022 µg/mL
- IC50, n = 2 (HT29 adhesion to TGFβLAP) [8]: 0.024 µg/mL
- IC50, n = 3 (HT29 adhesion to TGFβLAP) [8]: 0.067 µg/mL
- Percent Inhibition (J6.77 adhesion to CS-1 peptide of fibronectin, 5 ug/ml) [9]: -6%
- % Inhibition (K562 adhesion to fibronectin) [10]: -8%
- Geometric Mean Shift [12]: 6820
- Geometric Mean Shift [13]: 6760
- Geometric Mean Shift [14]: 4530

B4: sc 133 (antibody, V domains shown)
VH: QVQLVQSGAEVKKPGASVKVSCKASGYTFTGYYMHWVRQAPGQGLEWMGWINPKSGDTNYAQKFQGRVTLTRDTSTSTAYMELSRLRSDDTAVYYCARRLDVWGQGTTVTVSS
VL: QSVLTQPPSVSAAPGQKVTISCSGSSSNIGNNYVSWYQQLPGTAPKLLIYDNNKRPSGIPDRFSGSKSGTSATLGITGLQTGDEADYYCGTWNSSLSAGYVFGTGTKVTV
- Percent Inhibition (A375M adhesion to osteopontin peptide, 5 µg/ml) [3]: 3%
- Percent Inhibition (J6.77 adhesion to CS-1 peptide of fibronectin, 5 ug/ml) [4]: -15%
- Percent Inhibition (K562 adhesion to FN9-10 peptide of fibronectin, 5 µg/ml) [5]: -12%
- % Cells Shifted [6]: 24%
- GeoMean [6]: 1.79
- percent of cells shifted [15]: 4%

B5: sc 254 (antibody, V domains shown)
VH: QVQLQESGPGLVKPSQTLSLTCTVSGGSISSGGYYWSWIRQHPGKGLEWIGYIYYSGSTYYNPSLKSRVTISVDTSKNQFSLKLSSVTAADTAMYYCARYRGPAAGRGDFYYFGMDVWGQGTTVTVSS
VL: DIVMTQTPLSLSVTPGQPASIFCKSSQSLLNSDGKTYLCWYLQKPGQPPQLLIYEVSNRFSGVPDRFSGSGSGTDFTLKISRVEAEDVGVYYCMQGIQLPWAFFGQGTKVEIK
- Assay 1 % Inhibition (HT29 adhesion to TGFβLAP) [1]: 98%
- Assay 2 % Inhibition (HT29 adhesion to TGFβLAP) [1]: 106%
- Average % Inhibition (HT29 adhesion to TGFβLAP) [1]: 102%
- Estimated IC50, n = 1 (HT29 adhesion to TGFβLAP) [2]: 0.063 µg/mL
- Estimated IC50, n = 2 (HT29 adhesion to TGFβLAP) [2]: 0.037 µg/mL
- Estimated IC50, n = 3 (HT29 adhesion to TGFβLAP) [2]: 0.037 µg/mL
- Percent Inhibition (J6.77 adhesion to CS-1 peptide of fibronectin, 5 ug/ml) [4]: 0%
- Percent Inhibition (K562 adhesion to FN9-10 peptide of fibronectin, 5 µg/ml) [5]: -9%
- GeoMean (cynomolgus αVβ6 on cells): 78.5
- FMAT Count [7]: 174
- FMAT FL1 [7]: 9180
- FMAT FL1 × Count [7]: 1.6e+06
- Kd (soluble αVβ6): 34.9 nM

B7: sc 264 (antibody, V domains shown)
VH: QVQLQESGPGLVKPSQTLSLTCTVSGGSISSGGYYWSWIRQHPGKGLEWIGYIYYSGRTYNNPSLKSRVTISVDTSKNQFSLKLSSVTAADTAVYYCARVATGRGDYHFYAMDVWGQGTTVTVSS
VL: SYELTQPSSVSVSPGQTARITCSGDVLAKKSARWFHQKPGQAPVLVIYKDSERPSGIPERFSGSSSGTTVTLTISGAQVEDEAAYYCYSAADNNLVFGGGTKLTVL
notes: RGD in heavy chain CDR3
- Percent Inhibition (A375M adhesion to osteopontin peptide, 5 µg/ml) [3]: 3%
- Percent Inhibition (J6.77 adhesion to CS-1 peptide of fibronectin, 5 ug/ml) [4]: -8%
- Percent Inhibition (K562 adhesion to FN9-10 peptide of fibronectin, 5 µg/ml) [5]: -4%
- Percent Inhibition (J6.77 adhesion to CS-1 peptide of fibronectin, 5 ug/ml) [9]: -30%
- % Inhibition (K562 adhesion to fibronectin) [10]: 3%
- % Cells Shifted [6]: 46%
- GeoMean [6]: 2.35
